Consider 1 substance from patent publication US20050084449A1.

Experiment [1] concerns the target TIM-1 antigen, cell membrane-bound (on ACHN, CAKI-2, CAKI-1 renal cancer cells and polarized/activated human CD4+ T cells) (human) (UniProt Q96D42). Briefly: FACS on activated T cells, Day 0, -MMPI.
Experiment [2] has the same target. Kind of experiment: FACS on activated T cells, Day 1, -MMPI.
Experiment [3] has the same target. Kind of experiment: FACS on activated T cells, Day 2, -MMPI.
The target is the same in experiment [4]. Briefly: FACS on activated T cells, Day 4, -MMPI.
Experiment [5] has the same target. Kind of experiment: FACS on activated T cells, Day 1, +MMPI.
Experiment [6] shares this target. Kind of experiment: FACS on activated T cells, Day 4, +MMPI.
For experiment [7] the target is unchanged. Briefly: FACS on activated T cells, Day 5, +MMPI.
For experiment [8] the target is unchanged. Briefly: FACS on activated T cells, Day 5, -MMPI.
For experiment [9] the target is unchanged. Briefly: FACS on activated T cells, Day 2, +MMPI.
The target is the same in experiment [10]. Kind of experiment: FACS on activated T cells, Day 0, +MMPI.

TIM-1 antigen, cell membrane-bound (on ACHN, CAKI-2, CAKI-1 renal cancer cells and polarized/activated human CD4+ T cells) (human), sequence (Q96D42 21-364): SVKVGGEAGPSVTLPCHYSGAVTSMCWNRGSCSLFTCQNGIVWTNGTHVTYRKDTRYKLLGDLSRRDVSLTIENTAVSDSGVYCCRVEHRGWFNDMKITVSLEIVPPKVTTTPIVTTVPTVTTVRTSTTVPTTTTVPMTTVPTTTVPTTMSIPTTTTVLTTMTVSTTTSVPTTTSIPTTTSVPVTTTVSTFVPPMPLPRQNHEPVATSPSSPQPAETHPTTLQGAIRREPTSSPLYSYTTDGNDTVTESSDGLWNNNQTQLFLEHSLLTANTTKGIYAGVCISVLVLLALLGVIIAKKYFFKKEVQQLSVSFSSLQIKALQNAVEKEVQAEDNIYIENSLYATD

With “isotype matched control mAb PK16.3 (antibody)”, the Percent of activated T cells that express TIM-1 (percent stained) amounted to 1% in [1]; 3% in experiment [2]; 3% in experiment [3]; 1% in experiment [4]; 2% in experiment [5]; 2% in experiment [6]. Also, the Percent of activated T cells that express TIM-1 (percent stained) in experiment [7] came out at 2%; in experiment [8] it was 1%; in [9], 6%; in [10], 1%.
